The supplement of paper PMC10567573

B1: CDC25A (parent)
chain: KKFRTKSRTWAGEKSKREMYSRLK
B2: PTPLAD1 (parent)
chain: YINFRHLYKQRRRRYGQKKKKIH

Variants of: B1
Test: protein stability index of a GFP-peptide fusion (GPS, HEK-293T) (PSI 1-6); higher = more stable
Details: c terminus: a fixed tail appended
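Further: lentivirally expressed fusions sorted by FACS into six bins by GFP to DsRed ratio, PSI derived from sequencing read proportions per bin multiplied by bin number.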

| Variant | protein stability index |
| --- | --- |
| KDFRTKSRTWAGEKSKREMYSRLK | 3.22 |
| KGFRTKSRTWAGEKSKREMYSRLK | 4.12 |
| KHFRTKSRTWAGEKSKREMYSRLK | 1.93 |
| KWFRTKSRTWAGEKSKREMYSRLK | 2.63 |
| KMFRTKSRTWAGEKSKREMYSRLK | 1.76 |
| KPFRTKSRTWAGEKSKREMYSRLK | 2.6 |
| KEFRTKSRTWAGEKSKREMYSRLK | 3.27 |
| KCFRTKSRTWAGEKSKREMYSRLK | 2.38 |
| KSFRTKSRTWAGEKSKREMYSRLK | 3.06 |
| KYFRTKSRTWAGEKSKREMYSRLK | 3.09 |
| KIFRTKSRTWAGEKSKREMYSRLK | 2.38 |
| QKFRTKSRTWAGEKSKREMYSRLK | 3.35 |
| SKFRTKSRTWAGEKSKREMYSRLK | 3.22 |
| VKFRTKSRTWAGEKSKREMYSRLK | 2.65 |
| LKFRTKSRTWAGEKSKREMYSRLK | 1.95 |
| TKFRTKSRTWAGEKSKREMYSRLK | 4.1 |
| AKFRTKSRTWAGEKSKREMYSRLK | 3.59 |
| YKFRTKSRTWAGEKSKREMYSRLK | 2.71 |

| Variant | protein stability index |
| --- | --- |
| PKFRTKSRTWAGEKSKREMYSRLK | 3.25 |
| FKFRTKSRTWAGEKSKREMYSRLK | 2.37 |
| DKFRTKSRTWAGEKSKREMYSRLK | 3.83 |
| EKFRTKSRTWAGEKSKREMYSRLK | 3.74 |
| WKFRTKSRTWAGEKSKREMYSRLK | 2.37 |
| NKFRTKSRTWAGEKSKREMYSRLK | 2.7 |
| IKFRTKSRTWAGEKSKREMYSRLK | 1.89 |
| RKFRTKSRTWAGEKSKREMYSRLK | 3.04 |
| KKGRTKSRTWAGEKSKREMYSRLK | 3.49 |
| KKIRTKSRTWAGEKSKREMYSRLK | 3.06 |
| KKNRTKSRTWAGEKSKREMYSRLK | 3.12 |
| KKKRTKSRTWAGEKSKREMYSRLK | 3.16 |
| KKHRTKSRTWAGEKSKREMYSRLK | 3.1 |
| KKARTKSRTWAGEKSKREMYSRLK | 3.28 |
| KKPRTKSRTWAGEKSKREMYSRLK | 2.85 |
| KKCRTKSRTWAGEKSKREMYSRLK | 3.22 |
| KKMRTKSRTWAGEKSKREMYSRLK | 3.61 |
| KKLRTKSRTWAGEKSKREMYSRLK | 3.49 |

Variants of: B2
Test: as above
Details: c terminus: native

| Variant | protein stability index |
| --- | --- |
| YINFRHLYKQRRRREGQKKKKIH | 4.57 |
| YINFRHLYKQRRRRWGQKKKKIH | 2.59 |
| YINFRHLYKQRRRRAGQKKKKIH | 2.12 |
| YINFRHLYKQRRRRVGQKKKKIH | 2.14 |
| YINFRHLYKQRRRRHGQKKKKIH | 1.72 |
| YINFRHLYKQRRRRMGQKKKKIH | 1.37 |
| YINFRHLYKQRRRRFGQKKKKIH | 1.53 |
| YINFRHLYKQRRRRIGQKKKKIH | 2.11 |
| YINFRHLYKQRRRRGGQKKKKIH | 2.14 |
| YINFRHLYKQRRRRNGQKKKKIH | 1.11 |
| YINFRHLYKQRRRRDGQKKKKIH | 2.48 |
| YINFRHLYKQRRRRRGQKKKKIH | 2.85 |
| YINFRHLYKQRRRRSGQKKKKIH | 1.74 |
| YINFRHLYKQRRRRLGQKKKKIH | 2 |
| YINFRHLYKQRRRRQGQKKKKIH | 1.88 |
| YINFRHLYKQRRRRKGQKKKKIH | 2.33 |
| YINFRHLYKQRRRRCGQKKKKIH | 2.22 |
| YINFRHLYKQRRRRTGQKKKKIH | 1.69 |
| YINFRHLYKQRRRRYGQDKKKIH | 2.44 |
| YINFRHLYKQRRRRYGQVKKKIH | 2.29 |
| YINFRHLYKQRRRRYGQTKKKIH | 2.19 |
| YINFRHLYKQRRRRYGQYKKKIH | 2.39 |
| YINFRHLYKQRRRRYGQMKKKIH | 1.78 |

| Variant | protein stability index |
| --- | --- |
| YINFRHLYKQRRRRYGQRKKKIH | 1.97 |
| YINFRHLYKQRRRRYGQEKKKIH | 2.17 |
| YINFRHLYKQRRRRYGQSKKKIH | 1.65 |
| YINFRHLYKQRRRRYGQIKKKIH | 2.86 |
| YINFRHLYKQRRRRYGQQKKKIH | 1.56 |
| YINFRHLYKQRRRRYGQFKKKIH | 2.46 |
| YINFRHLYKQRRRRYGQPKKKIH | 1.52 |
| YINFRHLYKQRRRRYGQGKKKIH | 1.91 |
| YINFRHLYKQRRRRYGQAKKKIH | 2.15 |
| YINFRHLYKQRRRRYGQWKKKIH | 2.22 |
| YINFRHLYKQRRRRYGQLKKKIH | 2.42 |
| YINFRHLYKQRRRRYGQNKKKIH | 1.96 |
| YINFRHLYKQRRRRYGQCKKKIH | 2.62 |
| YINFRHLYKQRRRRYGQKKKKLH | 2.67 |
| YINFRHLYKQRRRRYGQKKKKSH | 2.33 |
| YINFRHLYKQRRRRYGQKKKKVH | 1.41 |
| YINFRHLYKQRRRRYGQKKKKQH | 2.44 |
| YINFRHLYKQRRRRYGQKKKKWH | 2.22 |
| YINFRHLYKQRRRRYGQKKKKHH | 2.13 |
| YINFRHLYKQRRRRYGQKKKKGH | 1.5 |
| YINFRHLYKQRRRRYGQKKKKTH | 2.1 |
| YINFRHLYKQRRRRYGQKKKKMH | 2.23 |
| YINFRHLYKQRRRRYGQKKKKDH | 2.56 |

| Variant | protein stability index |
| --- | --- |
| YINFRHLYKQRRRRYGQKKKKCH | 1.86 |
| YINFRHLYKQRRRRYGQKKKKEH | 2.66 |
| YINFRHLYKQRRRRYGQKKKKNH | 1.9 |
| YINFRHLYKQRRRRYGQKKKKRH | 1.81 |
| YINFRHLYKQRRRRYGQKKKKYH | 2.08 |
| YINFRHLYKQRRRRYGQKKKKAH | 2.02 |
| YINFRHLYKQRRRRYGQKKKKFH | 1.72 |
| YINFRHLYKQRRRRYGQKKKKPH | 1.86 |
| YINFRHLYKQRRRNYGQKKKKIH | 2.15 |
| YINFRHLYKQRRRPYGQKKKKIH | 2.05 |
| YINFRHLYKQRRRTYGQKKKKIH | 1.22 |
| YINFRHLYKQRRRYYGQKKKKIH | 1.78 |
| YINFRHLYKQRRRSYGQKKKKIH | 1.85 |
| YINFRHLYKQRRRVYGQKKKKIH | 2.14 |
| YINFRHLYKQRRRRYGQKKKKIP | 2.07 |
| YINFRHLYKQRRRRYGQKKKKIE | 1.04 |
| YINFRHLYKQRRRRYGQKKKKIV | 2.58 |
| YINFRHLYKQRRRRYGQKKKKIF | 1.11 |
| YINFRHLYKQRRRRYGQKKKKIW | 2.25 |
| YINFRHLYKQRRRRYGQKKKKIK | 1.58 |
| YINFRHLYKQRRRRYGQKKKKIS | 1.48 |
| YINFRHLYKQRRRRYGQKKKKIC | 1.05 |
| YINFRHLYKQRRRRYGQKKKKID | 2.09 |

| Variant | protein stability index |
| --- | --- |
| YINFRHLYKQRRRRYGQKKKKIT | 3.73 |
| YINFRHLYKQRRRRYPQKKKKIH | 1.66 |
| YINFRHLYKQRRRRYKQKKKKIH | 2.57 |
| YINFRHLYKQRRRRYAQKKKKIH | 2.54 |
| YINFRHLYKQRRRRYWQKKKKIH | 2.76 |
| YINFRHLYKQRRRRYTQKKKKIH | 2.88 |
| YINFRHLYKQRRRRYIQKKKKIH | 2.21 |
| YINFRHLYKQRRRRYLQKKKKIH | 2.23 |
| YINFRHLYKQRRRRYQQKKKKIH | 1.56 |
| YINFRHLYKQRRRRYFQKKKKIH | 1.6 |
| YINFRHLYKQRRRRYMQKKKKIH | 2.27 |
| YINFRHLYKQRRRRYSQKKKKIH | 2.71 |
| YINFRHLYKQRRRRYNQKKKKIH | 1.4 |
| YINFRHLYKQRRRRYYQKKKKIH | 1.25 |
| YINFRHLYKQRRRRYRQKKKKIH | 1.74 |
| YINFRHLYKQRRRRYCQKKKKIH | 2.27 |
| YINFRHLYKQRRRRYHQKKKKIH | 1.35 |
| YINFRHLYKQRRRRYVQKKKKIH | 2.44 |
| YINFRHLYKQRRRRYEQKKKKIH | 1.85 |
| YINFRHLYKQRRRRYDQKKKKIH | 2.6 |
| YINFRHLYKQRRRRYGQKKKWIH | 2.37 |
| YINFRHLYKQRRRRYGQKKKDIH | 1.33 |
| YINFRHLYKQRRRRYGQKKKMIH | 2.3 |

| Variant | protein stability index |
| --- | --- |
| YINFRHLYKQRRRRYGQKKKTIH | 2.7 |
| YINFRHLYKQRRRRYGQKKKQIH | 1.39 |
| YINFRHLYKQRRRRYGQKKKLIH | 1.92 |
| YINFRHLYKQRRRRYGQKKKIIH | 2.14 |
| YINFRHLYKQRRRRYGQKKKVIH | 1.6 |
| YINFRHLYKQRRRRYGQKKKNIH | 2.27 |
| YINFRHLYKQRRRRYGQKKKPIH | 1.99 |
| YINFRHLYKQRRRRYGQKKKGIH | 2.96 |
| YINFRHLYKQRRRRYGQKKKRIH | 2.49 |
| YINFRHLYKQRRRRYGQKKKCIH | 2.5 |
| YINFRHLYKQRRRRYGQKKKSIH | 2.33 |
| YINFRHLYKQRRRRYGQKKKYIH | 1.35 |
| YINFRHLYKQRRRRYGQKKKFIH | 2.76 |
| YINFRHLYKQRRRRYGQKKKHIH | 1.94 |
| YINFRHLYKQRRRRYGAKKKKIH | 2.66 |
| YINFRHLYKQRRRRYGFKKKKIH | 2.3 |
| YINFRHLYKQRRRRYGHKKKKIH | 1.72 |
| YINFRHLYKQRRRRYGYKKKKIH | 1.7 |
| YINFRHLYKQRRRRYGCKKKKIH | 1.48 |
| YINFRHLYKQRRRRYGEKKKKIH | 2.55 |
| YINFRHLYKQRRRRYGVKKKKIH | 1.89 |
| YINFRHLYKQRRRRYGKKKKKIH | 1.76 |
| YINFRHLYKQRRRRYGNKKKKIH | 4 |

| Variant | protein stability index |
| --- | --- |
| YINFRHLYKQRRRRYGLKKKKIH | 2.07 |
| YINFRHLYKQRRRRYGMKKKKIH | 1.73 |
| YINFRHLYKQRRRRYGPKKKKIH | 1.46 |
| YINFRHLYKQRRRRYGGKKKKIH | 2.25 |
| YINFRHLYKQRRRRYGTKKKKIH | 2.54 |
| YINFRHLYKQRRRRYGDKKKKIH | 2.23 |
| YINFRHLYKQRRRRYGRKKKKIH | 2.59 |
| YINFRHLYKQRRRRYGWKKKKIH | 1.63 |
| YINFRHLYKQRRRRYGQKHKKIH | 2.49 |
| YINFRHLYKQRRRRYGQKRKKIH | 1.91 |
| YINFRHLYKQRRRRYGQKPKKIH | 1.95 |
| YINFRHLYKQRRRRYGQKYKKIH | 2.12 |
| YINFRHLYKQRRRRYGQKIKKIH | 2.54 |
| YINFRHLYKQRRRRYGQKMKKIH | 2.31 |
| YINFRHLYKQRRRRYGQKTKKIH | 1.96 |
| YINFRHLYKQRRRRYGQKSKKIH | 2.07 |
| YINFRHLYKQRRRRYGQKGKKIH | 2.15 |
| YINFRHLYKQRRRRYGQKFKKIH | 2.25 |
| YINFRHLYKQRRRRYGQKWKKIH | 2.02 |
| YINFRHLYKQRRRRYGQKLKKIH | 3.09 |
| YINFRHLYKQRRRRYGQKDKKIH | 2.66 |
| YINFRHLYKQRRRRYGQKEKKIH | 1.57 |
| YINFRHLYKQRRRRYGQKQKKIH | 2.09 |

| Variant | protein stability index |
| --- | --- |
| YINFRHLYKQRRRRYGQKNKKIH | 1.62 |
| YINFRHLYKQRRRRYGQKAKKIH | 2.04 |
| YINFRHLYKQRRRRYGQKKDKIH | 3.01 |
| YINFRHLYKQRRRRYGQKKFKIH | 1.71 |
| YINFRHLYKQRRRRYGQKKCKIH | 1.83 |
| YINFRHLYKQRRRRYGQKKIKIH | 2.92 |
| YINFRHLYKQRRRRYGQKKQKIH | 1.46 |
| YINFRHLYKQRRRRYGQKKSKIH | 1.69 |
| YINFRHLYKQRRRRYGQKKEKIH | 1.66 |
| YINFRHLYKQRRRRYGQKKWKIH | 1.91 |
| YINFRHLYKQRRRRYGQKKAKIH | 2.05 |
| YINFRHLYKQRRRRYGQKKRKIH | 1.82 |
| YINFRHLYKQRRRRYGQKKTKIH | 1.99 |
| YINFRHLYKQRRRRYGQKKMKIH | 1.88 |
| YINFRHLYKQRRRRYGQKKYKIH | 3.24 |
| YINFRHLYKQRRRRYGQKKGKIH | 2.77 |
| YINFRHLYKQRRRRYGQKKHKIH | 2.35 |
| YINFRHLYKQRRRRYGQKKNKIH | 1.89 |
| YINFRHLYKQRRRRYGQKKPKIH | 2 |
